Experimental data as given in patent publication US20250129150A1.

Biological target: recombinant human C1q (human) (UniProt P02745)
Assay: SPR, antibody captured on anti-kappa chip, C1q as analyte; signal relative to rituximab

Chain of Lebrikizumab (Construct 1) (antibody; other documents disagree on this pair) (heavy): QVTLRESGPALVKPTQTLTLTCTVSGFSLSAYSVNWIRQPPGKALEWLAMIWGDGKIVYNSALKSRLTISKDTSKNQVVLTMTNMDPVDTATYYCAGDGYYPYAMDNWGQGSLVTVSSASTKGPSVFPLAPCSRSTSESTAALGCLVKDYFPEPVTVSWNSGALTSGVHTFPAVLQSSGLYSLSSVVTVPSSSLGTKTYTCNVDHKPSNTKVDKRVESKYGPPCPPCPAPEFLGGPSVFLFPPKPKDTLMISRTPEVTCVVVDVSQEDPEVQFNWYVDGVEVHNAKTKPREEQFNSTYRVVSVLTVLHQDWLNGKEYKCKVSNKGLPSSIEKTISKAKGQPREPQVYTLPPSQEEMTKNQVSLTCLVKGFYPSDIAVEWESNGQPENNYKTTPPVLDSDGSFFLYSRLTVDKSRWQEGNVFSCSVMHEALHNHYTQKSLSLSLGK
Chain of Lebrikizumab (Construct 1) (antibody; other documents disagree on this pair) (light): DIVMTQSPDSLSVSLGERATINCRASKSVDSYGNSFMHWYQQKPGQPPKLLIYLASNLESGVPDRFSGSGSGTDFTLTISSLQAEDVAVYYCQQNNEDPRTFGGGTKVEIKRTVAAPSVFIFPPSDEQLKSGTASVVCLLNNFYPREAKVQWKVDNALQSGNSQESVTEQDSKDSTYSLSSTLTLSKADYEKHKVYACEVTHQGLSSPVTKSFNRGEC
Chain of recombinant human C1q (human) (P02745 23-245 limits assumed, chain 1 of 3): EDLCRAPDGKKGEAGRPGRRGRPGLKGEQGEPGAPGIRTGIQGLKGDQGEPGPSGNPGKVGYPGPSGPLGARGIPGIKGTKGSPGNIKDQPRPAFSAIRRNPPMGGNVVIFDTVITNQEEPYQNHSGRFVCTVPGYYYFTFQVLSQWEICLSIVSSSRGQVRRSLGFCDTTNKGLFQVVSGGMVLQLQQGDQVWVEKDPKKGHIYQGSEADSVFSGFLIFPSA
Chain of recombinant human C1q (human) (P02746 28-253 limits assumed, chain 2 of 3, further chain): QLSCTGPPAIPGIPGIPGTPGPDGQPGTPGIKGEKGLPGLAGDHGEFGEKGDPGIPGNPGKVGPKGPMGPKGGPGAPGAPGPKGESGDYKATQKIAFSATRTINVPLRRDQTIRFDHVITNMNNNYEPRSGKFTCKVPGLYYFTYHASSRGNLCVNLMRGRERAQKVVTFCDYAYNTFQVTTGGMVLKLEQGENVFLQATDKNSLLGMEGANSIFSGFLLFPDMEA
Chain of recombinant human C1q (human) (P02747 29-245 limits assumed, chain 3 of 3, further chain): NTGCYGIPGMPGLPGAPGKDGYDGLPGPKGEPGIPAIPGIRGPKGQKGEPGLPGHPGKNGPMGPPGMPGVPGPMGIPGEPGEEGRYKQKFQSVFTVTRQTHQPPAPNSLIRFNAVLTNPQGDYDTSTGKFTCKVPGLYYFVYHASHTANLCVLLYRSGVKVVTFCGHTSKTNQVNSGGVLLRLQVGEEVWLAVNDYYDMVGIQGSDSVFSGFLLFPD

**Q.** “Lebrikizumab (Construct 1) (antibody; other documents disagree on this pair)” was tested. Which C1q (Signal Relative to Rituximab) did it give?
**A.** The C1q (Signal Relative to Rituximab) was 39.6%.
